Measured values from the nanobody polyreactivity screen of Harvey et al. (2022).

assay: yeast display, Sf9 membrane polyspecificity reagent, FACS + sequencing; frameworks hold sequencing errors
In short: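 In a synthetic yeast display library (Saccharomyces cerevisiae BJ5465), nanobody expression was induced with galactose for 36–48 hours. FACS gates were set low and high (top ~1%) using anti-HA fluorescence for expression and streptavidin fluorescence for binding of the Sf9 membrane reagent. Each polyreactivity label is drawn from the gate of origin.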

Sequence | polyreactivity (PSR sort gate)
QVQLVESCGGLVQTGGSLRLICAASRSNFDYYAMGWYRQAPWKETELVATNSYDFSTSYADSVKVLFTISRDNAKNTVFLQMKSLKPVDTAVYYCATDAGLYLEDAYEGPEQEFDYWGQGTQVTVSS | low polyreactivity
QVQLVESGGGLVQAGGSLSLSCAASGLIFYYYAMGWYRQAPGKERELVAAITRGGRTYYADSVKGRFTISRDNAKNTVYLQMNSLKPEDTAVYYCAAVTRVYGKTMGYWGQGTQVTVSS | high polyreactivity
QVQLVESGGGLVQAGGSLRLSCAASGRIFGWYAMGWYRQAPGKERELVAAINRGGSTNYADSVKGRFTISRDNAKNTVYLQMNSLSPEDTGVYYCAVRGVHYTAVTNIIYGYGYWGQGTQVTVSS | high polyreactivity
QVQLVESGGGLVQAGGSLRLSCAASGLSSGFNVMGWYRQAPGKERELVAAIRSTGSPKYADSVKGRFTISRDNAKNTVYLQMNSLKPEDTAVYYCFRYSFYLNYWGQGTQVTVSS | high polyreactivity
QVQLVESGGGLVQAGGSLRLSCAASGYTFLHYAMGWYRQAPGKERELVAAISGSGGRTYYADSVKGRFTISRDNAKNTVYLQMNSLKPEDTAVYYCAAPYSSRNYYYWGQGTQVTVSS | high polyreactivity
QVQLVESGGGLVQAGGSLRLSCAASGSTFYLNAMGWYRKAHGKERELVAPINGSGGSTYADSVKGRFTISRDNAKNTVYLQLHSLKPEDTAVYYCAADGTGYPGDSYPGMDYDYWGQVTQVTVSS | low polyreactivity
QVQLVESGGGLVQAGGSLRLSCAASGNIFDEYTMGWYRQAPGKERELVAAISWRGGSTYYADSVKGRFTISRDNAKNTVYLQMNSLKPEDTAVYYCNKAYPADYDYWGQGTQVTVSS | low polyreactivity
QVHLVESGGGLVQAGGSLRLSCAASGRIFYYNAIGWYRQAPGKERELVANITRARGTYYADSVKGPFTISRDNAKNTVYLQMNSLKPEDTAVYYCAKRHPIVDDYKGDYWGQGTQVTVSS | low polyreactivity
QVQLVESGGGLVQAGGSLRLSCAASGRTFAWYAMGWYRQAPGKERELVAAITTRGSGTYYADSVKGSFTISRDNAKNTVYLQMHSLKPEDTAVYYCAKDPITATTLDERVYYWGQGTQVTVSS | low polyreactivity
QLQIVESGGGLVQAGGSLRLSCAASGRIFSYNAMGWYIQAPGKARELVAAITFSGGGTYYADSVKGRFTISRDNAKNTVYLQMNSLNPEYTAVYYCNKVSYGYSTYGYWGQCTQVTVSS | low polyreactivity
QVQLVESGGGLVQAGGSLRLSCAASGRIFYRYAMGWYRQAPGKERELVAAITRGGRTNYADSVKGRFTISRDNAQNTVYLQMNSLKPEDTAVYYCRPLWYGFDYWGQGTQVTVSS | high polyreactivity
QVQLVESGGGLVQAGGSLRLSCAASGSIYPGNAMGWYRQAPGKERELVAVIDFSGASTYYADSVKGRFTISRDNAKNTVYLQMNSLKPEDTADYWGQGTQVTVSS | low polyreactivity
QVQLVESWGGLVQAGGSLRLSCAASGSTIAYYVLGWYRQAPRKERELVAAINFSGDSTYYADSVKGRFTNSRDNAKNTVNLQMNSLKPEDTAVYYCAVDWGEYIDTSVKRDISYYWGQGTQVTVSS | low polyreactivity
QVQLVESGGGLVQAGGRLRLSCAASGRTFHYYALGWYRQATGKERELVAVIRYSGGRTYYADTVKGRFTISRDNAKNTVYLQMNSLKPEDTAVYYCNKGRWRTDPPVYLIAFDYWGQGTQVTVSS | low polyreactivity
QVQLVESGGGLVQAGGSLRLSCAASGSTFYNYVMGWYRQAPGKERELVAVINRSGTRTYYADSVKGRLTISRDNAKITVYLQMNSLKPEDTAVYYCNAELSYPGRYDSWGQGTQVTVSS | high polyreactivity
QVQLVESGGGLVQAGGSLRLSCAASGSILVGNAMGWYRQAPGKERELVAAISKSGSSTHYADSVKGRFTISRDNAKNTVYLQMNSLKPEDTAVYYCNAVGRVYRAKYDYWGQGTQVTVSS | high polyreactivity
QVQLVESGGGLVQAGGSLRLSCAASGLTFASYAMGWYRQAPGKERELVARISRSGGSTYYADSVKGRFTISRDNAKNTVYLQMNSLKPEDTAVYYCAADYIFRRYPVGGIYDYDYWGQGTQVTVSS | high polyreactivity
QVQLVESGGGLVQEGGSLRLSCAASGSIFDVYAMGWYRQAPGKERELVAAISSSGSTYYADSVKGRFTISRDNAKNTVYLQMNSLKPEDTAVYYCASDQADDDDYYYWGQGNQVTVSS | low polyreactivity
QVQHVESGGGLVQAGGSLRLSCAASGGTFRPYARGWSIQAPGKERELVAAISYTGSTYYADSVKGRFTISRDNAKYTVYLQMNSLKPEDTAVYYCAKDFWYPPRFDYWGQGTQVTVSS | low polyreactivity
QVQLVESGGGLVQAGGSLRLSCAASGSIFGYYAMGWYRQAPGKERELVADITVRGGSTYYADSVNGRFTISRDNAKNTVYLQMNSLKPEDTAVYYCAKRFKYIYYWGQGTQVTVSS | high polyreactivity
QVQLVESGGGLVQAGGSLRLSCAASGSTFQDNAMGWYRQAPGKERELVAVITRTGGDTNYADSVKGRFTISRDNAKNTVYLQMNSLKPEDTAVYYCAADNVYVTWFYYWGQGTQVTVSS | low polyreactivity
QVQLVESGGGLVQAGGSLRLSCAASGFIFYIYAMGWYRQAPGKERELVAAITSGGSTYYADSVKGRFTISRDNAKNTVYLQMNSLKPEDTAVYFCAAESYYGYDYWGQGTQVTLSS | low polyreactivity

Sequence | polyreactivity (PSR sort gate)
QFQLVESGGRLDQAGGSLRLSCAASSSIFDDYAMGWYRQAPGKERELVAAISWSGGSTYYADSVQGRFTISRDNPNHTVYLQMNSLKREDTAVYYCAAYAYDYLYGEYYWGQGTQVTVSS | low polyreactivity
QVQLVESGGGLVQAGGSLRLISAASGFIFRYNAMGWYRQAPGKESELVATISSGGGNTYYADSVKGRFTISRDNAKNTVYLQMNSLKPEDTAVYYCAARRYYGVYYAFYYWGQGTQVTVSS | high polyreactivity
QVQLVESGGGLVQAGGSLRLSCAASGSIFYYNAMGWYRQAPGKERELVAAMSWSGGSTYDADSVKGRFTISRDNAKHTVYLQMNSLKPEDTAVYYCRYYRRDEMDYWGQGTQVTVSS | high polyreactivity
QVQLVESGGGLVQAGGSLRLSCAASGFTFIYYAMGWYRQAPGKERELVAGISSGGRTSYADSVKGRFTISRDNAKNTVYLQMNSLKPEDTAVYYCATPVSRFRRTEYGYYYWGQGTQVTVSS | high polyreactivity
QVQLVESGGGLVQAGGSLRLSCAASGKIFNNYVMGWYRQAPGKVRELVARIDSGGSTNYADSVKGRFTISRDNAKNTVYLQMNSLKPEDTAVYYCAARKLSSYAYDYWGQGTQVTVSS | low polyreactivity
QVQLLESGGGLVQAGGSLRLSCAASGYFFSDNTMGWYRQAPGKERELVAAITSGGSSYYADSVKGGFTISRDIAKNTVYLQMNSLKQEDTAVYYCDKDVLHVRRVSGQYYSVDYWGQGTQVTVSS | low polyreactivity
QVQLVESGGGLVQAGGSLRLSCAASGSIFPDYAMGRYRQAPGKERELVAGISSNSGSTYYADSVKGRFTISRDNAKNTVYLQMNSLKPEDTAVYYCAKDSFWRDTGYTDGDYWGQGTKVTVSS | low polyreactivity
QVQLVESGGGLVQAGGSLRLSCAASGFIFYHYVLGWYRQAPGKERELVAAITRGGSTYADSVKGRFTISRDNAKNTVYLQMNSLKPEDTAVYYCNADYPFSYFTRLMDYWGQGTQVTVSS | low polyreactivity
QVQLVESGGGLVQAGGSLRLICAASGSISTPYTMGWYRQAPGKERELVAAISWIGDTTSYADSVKGRFTISRDNAKNTVYLQMNSLKPEDTAVYYCNAEHRGYDYWGQGTQVTVSS | low polyreactivity
QVQLVESGGGLVQAGGSLRLSCAASGGTFYPYAMGWYRQAPGKERELVAAISASDDNTYYADSVKGRFTISRDNAKNTVYLQMNSLKPEDTAVYYCAKRSYFYPYGYWGQGTQVTVSS | high polyreactivity
QVQLVESGGGLVQAGGSLRLSCAASVTIFGDYTMGWYRQAPGKERELVAAITWSAGRTYYADSVKGRFTISRDNAKNTVYLQMNSLKPEDTAVYYCAAQVPEDTETVDYWGQGTQVTVSS | low polyreactivity
QVQLVESGGGLVQAGGSLRLRCAASGSIFNSYAMGWYRPAPGKERELVAAISIRGTRTYYADSVKGRFTISRDNAKNTVSLQMNSLKPEDSAVSYCAADASSTEGMDFWGQGTQLTVSS | high polyreactivity
QVQLVESGGGLVQAGGSHRLSCAASGSIFYFNAMGWYRQAPGKEREFVAGITTSGGSTYYADSVKGRFTISRDNAKNTVYLQMNSLKPEDTAVYYCNIVWVYAVTPSSWYKYGSWGQGTQVTVSS | low polyreactivity
QVQLVESGGGLVQAGGSLRLSCAASGRIFSYNAMGWYRQAPGKERELVAAITFSGGGTYYADSVKGRFTISRDNAKYTVYLQMNSLKPEDTAVYYCNKVSYGYSTYGYWGQGTQVTVSS | low polyreactivity
QDHLVESGEGLVQAGGSLRLSCAASGFVFAYYTMGWYRTAPGKERELVAAISRGGGRTYYADSVKGRFTISRDNAKNTVYLQMNSLKPEDTAVYYCAARNGPSIKFAVTGMDYWGQGTQVTVSS | high polyreactivity
QVQLVESGGGLVQAGGSLRLSCAASGLTFRRNTMGWYRQAPGKERELVATITSGGSTNYADSVKGRFTISRDNAKNTVYLQMNSLKPEDTAVYYCAARTTYITTWVYRHTYTYYYWGQGTQVTVSS | high polyreactivity
QVQLVESGGGLVQAGGSLRLSCAASGLTFKYYTMGWYRQAPGKERELVAAISRSGTITYYADSVKGRFTISRDNAKNTVYLQMNSLKPEDTAVYYSNKASTYPSYDYWGHGTQVTVSS | high polyreactivity
QVQLVESGGGLVQAGGSLRLSCAASGRIFKPNAMGGSRQAPGKEREFVARITRNTGSTYYADSVKGRFTISRDNAKNTVYLQMNSLKPEDTAVYYCAARFYRRNRFNYWGQGTLVTVSS | high polyreactivity
QVQLVESGGGLVQAGGSLRLSCAASGSTIFLYDMGWYRQAPGKERELVAAITISGGSTYYADSVKGRFTISRDNAKNTVYLQMNSLKPEDTAVYDCNADYQWYLGGYDYWGQGTQVTVSS | high polyreactivity
QVQLVESGGGLVQAGGSLRLSCAASGRIFLYYTMGWYRQATWKERELVAAITRSGGSTYYADSVKGRFTISRDNAKNTVYLQMNSLKPEDTAVYYCNRAYVRYVPMNYWGQGTQVTVSS | high polyreactivity
QVQLVESGGGLVQAGGSLRLICAASGSIFGRYSMGWYRQAPGKERELVAAINYSGGRTYYADSVKGRVTISRDNAKNTVYLQMNSLKPEDTAVYYCAAAQFPDRNYNYWGQGTQVTVSS | high polyreactivity
